Laboratory results: patent US20250215108A1 (OSE IMMUNOTHERAPEUTICS, published 2025)
Residue numbers refer to the chain shown, from its start. Where “and” joins values, the source holds several entries; their conditions need not be identical. Equal values may be shown once.

B1: chimeric mouse/human 18D5 antibody (antibody, human IgG4 S228P, kappa)
heavy: not shown
light: DVVMTQTPLSLPVSLGDQASISCRSSQSLVHSYGNTYLYWYLQKPGQSPKLLIYRVSNRFSGVPDRFSGSGSGTDFTLKISRVEAEDLGVYFCFQGTHVPYTFGSGTKLEIKRTVAAPSVFIFPPSDEQLKSGTASVVCLLNNFYPREAKVQWKVDNALQSGNSQESVTEQDSKDSTYSLSSTLTLSKADYEKHKVYACEVTHQGLSSPVTKSFNRGEC
notes: also called chimeric antibody; chimeric 18D5
B2: HFLA (humanized 18D5 variant) (antibody, human IgG4 S228P, kappa, V domains shown)
VH: EVQLVQSGAEVKKPGESLRISCKASGYSFTSYWVHWVRQMPGKGLEWMGNIDPSDSDTHYSPSFQGHVTLSVDKSISTAYLQLSSLKASDTAMYYCVRGGTGTMAYFAYWGQGTLVTVSS
VL: DVVMTQSPLSLPVTLGQPASISCRSSQSLVHSYGNTYLYWYQQRPGQSPRLLIYRVSNRFSGVPDRFSGSGSGTDFTLKISRVEAEDVGVYFCFQGTHVPYTFGGGTKVEIKR
B3: HEFLA (humanized 18D5 variant) (antibody, human IgG4 S228P, kappa, V domains shown)
VH: B2 VH with M104L
VL: B2 VL
B4: HFLB (humanized 18D5 variant) (antibody, human IgG4 S228P, kappa, V domains shown)
VH: B2 VH
VL: B2 VL with Y41F, F92Y
B5: HALA (humanized 18D5 variant) (antibody, human IgG4 S228P, kappa, V domains shown)
VH: B2 VH with S28T, M48I, S61N, P62Q, S63K, Q65K, G66D, Y106W
VL: B2 VL
B6: HEFLB (humanized 18D5 variant) (antibody, human IgG4 S228P, kappa, V domains shown)
VH: B2 VH with M104L
VL: B2 VL with Y41F, F92Y
notes: also called anti-SIRPa HEFLB; HEFLB variant
B7: mouse antibody 18D5 (antibody, mouse IgG2b, kappa)
heavy: QVQLQQPGAELVRPGSSVKLSCKASGYTFTSYWVHWVKQRPIQGLEWIGNIDPSDSDTHYNQKFKDKASLTVDKSSSTAYMQLSSLTFEDSAVYYCVRGGTGTMAWFAYWGQGTLVTVSAAKTTPPSVYPLAPGCGDTTGSSVTLGCLVKGYFPESVTVTWNSGSLSSSVHTFPALLQSGLYTMSSSVTVPSSTWPSQTVTCSVAHPASSTTVDKKLEPSGPISTINPCPPCKECHKCPAPNLEGGPSVFIFPPNIKDVLMISLTPKVTCVVVDVSEDDPDVQISWFVNNVEVHTAQTQTHREDYNSTIRVVSTLPIQHQDWMSGKEFKCKVNNKDLPSPIERTISKIKGLVRAPQVYILPPPAEQLSRKDVSLTCLVVGFNPGDISVEWTSNGHTEENYKDTAPVLDSDGSYFIYSKLNMKTSKWEKTDSFSCNVRHEGLKNYYLKKTISRSPGK
light: DVVMTQTPLSLPVSLGDQASISCRSSQSLVHSYGNTYLYWYLQKPGQSPKLLIYRVSNRFSGVPDRFSGSGSGTDFTLKISRVEAEDLGVYFCFQGTHVPYTFGSGTKLEIKRADAAPTVSIFPPSSEQLTSGGASVVCFLNNFYPKDINVKWKIDGSERQNGVLNSWTDQDSKDSTYSMSSTLTLTKDEYERHNSYTCEATHKTSTSPIVKSFNRNEC
notes: also called m18D5; m18D5 clone

Assays:
[1] = biological target: T1, SIRPa on human monocytes (human, UniProt P78324 31-504); assay: flow cytometry on human monocytes v1/v1 (Fc receptors blocked), PE anti-human Fc; readout MFI
T1 construct: also called human monocytes (v1/v1); SIRPa variant 1 on monocytes
Procedure: (§1) FIG. 3A, B, C, D, E, F, G. Binding analyses of anti-SIRPa antibodies on human monocytes (homozygote for SIRPa variant 1 (v1/v1)). [0478] […] Revelation was performed with a PE labeled mouse anti-human Fc mAb on Cantoll cytometer, values corresponding to percentage of stained monocytes. […] A corresponds to the percentage of monocytes v1/v1 stained. B corresponds to the mean of fluorescence intensity (MFI) of monocytes v1/v1. [0479] […] D represents the percentage of stained monocytes over antibody dose response. Statistical analysis were performed when it was possible. [0480] (E, F, G) SIRPa variants binding in the population by anti-h SIRPa antibodies: The capacity of different anti-hSIRPa antibodies to bind SIRPa variants in the 32 volunteers was measured by FACS with a PE-anti mouse IgG. […] F represents the homozygote variant 2 volunteers (n=8). G represents the heterozygote V1/V2 volunteers (n=8).
(§2) Method: To measure the binding of the anti-SIRPa antibodies on human monocytes, human Fc Receptor Binding Inhibitor (BD pharmingen; USA; reference 564220) was first added for 30 min at room-temperature to block human Fc receptors on human monocytes to reduce background. Then, an antibody was incubated for 30 min at 4° C., and washed before stained 30 min at 4° C. with PE-labelled anti-human IgG Fc (Biolegend; USA; reference 409303). For the mouse antibodies, a PE-labelled anti-mouseIgG (Jackson Immunoresearch; reference 715-116-151) was used. Samples were analyzed on BD LSRII or Canto II cytofluorometer.

[2] = biological target: T1, SIRPa on human monocytes; assay: flow cytometry on human monocytes v1/v1 (Fc receptors blocked), PE anti-human Fc; readout % stained monocytes
Procedure: as §1, §2

[3] = biological target: T1, SIRPa on human monocytes; assay: competition flow cytometry on human monocytes v1/v1: antibody titrated with biotinylated CD47-Fc (competitor; 10 µg/ml in the legend, 5 µg/ml in Example 5), PE-streptavidin; readout median fluorescence
Description: (§3) FIG. 5A, B, C. […] [0485] […] A corresponds to the percentage of positive cells. B corresponds to the mean of fluorescence intensity. [0486]

[4] = biological target: T1, SIRPa on human monocytes; assay: competition flow cytometry on human monocytes v1/v1: antibody titrated with biotinylated CD47-Fc (competitor; 10 µg/ml in the legend, 5 µg/ml in Example 5), PE-streptavidin; readout % positives
Description: as §3

[5] = biological target: T2, CD47 on human blood cells (T cells, red blood cells, platelets) (human, UniProt Q08722 19-323); assay: flow cytometry on human red blood cells (left panel) and freshly isolated human platelets (right panel)
T2 construct: whole, on cells

[6] = biological target: T3, recombinant hSIRPa (Sino Biologicals, reference 10975-H08H) (human, UniProt P78324 31-370); assay: ELISA (ED50), immobilized hSIRPa, anti-mouse Fc detection
T3 construct: Used in the ELISA with the mouse antibodies
Procedure: For the ELISA assay with the mouse antibodies, a recombinant hSIRPa (Sino Biologicals, Beijing, China; reference 10975-H08H) was immobilized on plastic at 0.5 μg/ml in carbonate buffer (pH 9.2) and the purified antibody was added to measure binding.

| Binder | EC50 [1] [µg/mL] | EC50 [2] [µg/mL] | IC50 [3] [µg/mL] | IC50 [4] [µg/mL] | binding result [5] | EC50 [6] |
| --- | --- | --- | --- | --- | --- | --- |
| B1 | 0.78 | 0.225 | 0.2 | – | – | – |
| B2 | 0.328 | 0.174 | – | – | – | – |
| B3 | 0.858 | 0.356 | – | – | – | – |
| B4 | 0.467 | 0.201 | – | 0.15 | – | – |
| B5 | 0.59 | 0.242 | – | – | – | – |
| B6 | 0.449 | 0.208 | – | – | no binding | – |
| B7 | – | – | – | – | – | 0.06 nM and 0.009 µg/mL |
